In the supplement of paper PMC12042874:
± gives the uncertainty stated by the source.

Test: amyloid nucleation score (Sup35N fusion, yeast selection) (log enrichment); library NNK1; higher = more nucleation; inactive = no reads after selection
Outline: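 In psi-negative yeast, Sup35N fusions carrying peptides of 20 random codons were induced with 100 μM copper sulfate for 24 hours. The cells then grew 7 days at 30°C on medium lacking adenine and uracil, and plasmid inserts from input and output were Illumina-sequenced, excluding sequences with under 100 input reads. Nucleation score is the DiMSum log enrichment of output over input reads, centred on the mode score of non-aggregating sequences.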

Substance | amyloid nucleation score
CSGNSSGVRCMVRSNRS | 0.523 ± 0.38
CSGTICLIIRKLAVILTSQR | inactive
CSGYDGNSSYNGSNPVSFND | 0.056 ± 0.77
CSILYAAPKIRQSARFLMLS | 0.451 ± 0.32
CSLKKSMQNYEFHFWFLFIV | -0.757 ± 0.62
CSLLLMYIKNELMIRSFGRF | inactive
CSLLSYK | -1.63 ± 2.7
CSLSRVNHDLMVKDSSKEQR | 4.3 ± 0.073
CSSFAQ | 0.549 ± 0.31
CSSPRTTLEYWNCFFDHWWS | 2.64 ± 0.2
CSWFVYSNFFSHQMADMEWL | 0.183 ± 0.58
CTDSEAKGCDFFGRISVNVY | 0.689 ± 0.73
CTHRSFFSSNAIAVRLDLSW | inactive
CTIWPSQDGRGCTLCGSRL | 0.348 ± 0.75
CTLILSQQFSSIPVHFILYM | 4.4 ± 0.05
CTLKWLTF | 1.34 ± 0.43
CTMLCFQALRLLGRRILFQA | -0.361 ± 0.48
CTPALLGLAIIQQGNTWLGI | 2.63 ± 0.079
CTPVT | 0.887 ± 1
CTQGCHRVNWSVTYRVVFLA | 0.848 ± 0.42
CTRHMHTSRKFQALLSWCVT | -0.316 ± 0.47
CTWYLLVSSSRLLTDSFLPS | 1.32 ± 0.6
CTYNLTCLWHMELNSSMIMR | 5.37 ± 0.061
CVFIHRSFHTLFSGRRVDYP | 0.229 ± 0.55
CVFVRMMCTRFAAHHCVLSG | -0.143 ± 1.2
CVLPSNYDFV | inactive

Substance | amyloid nucleation score
CVLSNRNFNYVAYTYKLQYP | 1.19 ± 0.32
CVLVNVNNDQSWWR | 5.04 ± 0.076
CVSGVDLYRGSLGACGW | inactive
CVSIQDHFRGYKALDPAWFV | 0.805 ± 0.27
CVVLMMGVPAKAGLLLLHWS | 0.297 ± 0.35
CVYGIGVYR | -0.84 ± 0.95
CVYSFNWLRLLGALSG | 2.18 ± 0.24
CWCQAPVC | 0.124 ± 0.31
CWCSANALMCRGKLSAWNRH | inactive
CWGWMARLAINLAGTGSNQK | 0.119 ± 0.71
CWMTGWTYPVY | 3.85 ± 0.15
CWVHQNNCADVGATGEQSHR | -0.029 ± 0.51
CWVLNFVFGDCNLSCWGN | 7.185 ± 0.051
CWWRV | -0.761 ± 0.83
CWYET | -1.27 ± 1.9
CYRLWHGCKMGIPVQYLYGS | -0.113 ± 0.36
CYSMNEFFGNLHVSTRTHGK | -0.944 ± 0.66
CYWSFKSAVAGPLSSESEGS | 4.4 ± 0.095
DAALVIYLL | -0.6 ± 0.52
DACGNWCYCWRALDGQDGSI | 0.099 ± 0.31
DAIPFMFPNLMVMK | 0.155 ± 0.55
DAIVDS | 0.084 ± 0.54
DALYLFWVMGRMVRDRV | 0 ± 0.63
DAMHCCKTDYYIIGISGPSD | 0.732 ± 0.68
DAMWEMRVTTVRALARVCVC | 0.236 ± 1.1
DCDRYNGLCHLCCIQWHL | 1.56 ± 0.33

Substance | amyloid nucleation score
DCNLSSYLVYWAFHYDKLMS | 0.083 ± 0.58
DCPFKLPFSTRRR | 0.05 ± 0.73
DCRQTAKHFPETSDNLYRLT | -0.2 ± 0.28
DCYREVSYFKFQNTKGSGSW | 3.33 ± 0.14
DDGPLWRMKEMCLVTVRGSE | 0.91 ± 0.29
DDKLLRVLFLMCSPYYTIIG | -0.065 ± 0.22
DDLQCITLRFTRDASRGVSL | 0.843 ± 0.84
DDVGSTRYTTMGEACQGRPA | -1.13 ± 0.8
DDWIVRHCFNCLSVWMYLRY | 0.257 ± 0.9
DEDNFVRSHVNPLYLTSADD | 0.609 ± 0.83
DEGRSTQSVVCLVMEVNSDR | 0.411 ± 0.48
DEWCVG | 0.017 ± 0.82
DEWSNKHCSQNTALCSLWAT | 1.43 ± 0.2
DFARQSSHPETWSSGDLSHS | 0.239 ± 0.96
DFECILLGCFGLDLPVTGIR | 2.27 ± 0.16
DFIKYAFSWE | -0.347 ± 0.36
DFIVS | -0.198 ± 0.3
DFRAIS | 0.576 ± 0.79
DFWMSRKYLNVSMQ | 3.98 ± 0.1
DFYFYKLSLIFKSAFRWFPV | -0.359 ± 1.2
DGEAPKGSTGWTCGRVNERD | -0.125 ± 0.6
DGHKGEDSMAKLNFIFRLYS | -0.33 ± 0.38
DGICNW | 2.61 ± 0.12
DGQVSAVESMLRRWDSPVKG | 0.18 ± 1
DGRFLCFHIGSLMSGWDGRQ | -0.783 ± 0.75
DGRRFFYQRGDICLSMLHNH | -1.58 ± 1.7

Substance | amyloid nucleation score
DGSYTTRGRGHGESGRSGCW | 0.17 ± 0.42
DHASIGMALYCFCYQVSFIL | 0.391 ± 0.42
DHFKG | -0.044 ± 0.84
DHFPARKVGCTILTCMMQKL | 0.697 ± 0.63
DIKGRLLWGDKARLNEVPLR | 1.04 ± 0.57
DILVYRTLSPCVLSCSYFSG | -1.25 ± 0.77
DIPVSHGAYL | -0.378 ± 0.84
DIRDYGLWWDKWAEGC | 0.459 ± 0.3
DIRLTMRVSSLSM | 0.566 ± 0.31
DITYVYFSVAELLLMFLTLY | 1.33 ± 0.48
DIVPSTPELFI | -0.505 ± 0.59
DKAGNGQNGATGWRTMALSG | 0.777 ± 1.2
DKDDEIY | 1.42 ± 0.76
DKISWLSHQLRWDSRMSNLE | 1.1 ± 0.66
DKRYGDEVRHTGRWSRSVVW | 0.013 ± 0.42
DKSNRTCNWQFNNICCL | 8.386 ± 0.049
DKTMVGTPGLTHMVVDGVE | 0.12 ± 0.84
DKWLPIFTGGQLLSNLIFFC | 0.832 ± 0.18
DLCIFIYFVISVRVLYRISN | inactive
DLFRSSLSPVSLLHSDMDMG | 0.12 ± 0.41
DLFYDGCSRFLVMSKGTALV | -0.412 ± 1.2
DLIAARLAALF | -0.964 ± 0.39
DLIQLGLGQVSDPLGTWWSG | 2.29 ± 0.3
DLIWPRTRYRSTVD | inactive
DLLFMLRGAWAKSFMMGSVG | 0.059 ± 0.43
DLLQLYSDGTRGYVFFLLMK | inactive

Substance | amyloid nucleation score
DLLYERTYRSVVISLRTLAG | 0.816 ± 0.92
DLNDMAIRV | 0.004 ± 0.31
DLPLDS | 0.16 ± 0.72
DLPWSMLKVL | 0.689 ± 1.2
DLSSESHVFLCVAL | -0.711 ± 2.1
DMEKVV | 0.408 ± 0.6
DMVYYNEIPKGRYQHPAG | 0.593 ± 0.56
DNGGFDPWWCWNRLRWWRGG | 0.248 ± 0.38
DNINKLSWTRSILELG | -0.452 ± 0.62
DNRFERAVWVPHL | 3.78 ± 0.12
DNSPSSWFDWDLGEIGVRVE | -0.469 ± 1
DNVLALDGWNLINCLTT | 0.155 ± 0.37
DPGPLARKVGRRIEAAIMVA | 0.992 ± 0.49
DPICYKRNKANVYLGRFGYR | 0.7 ± 0.66
DPVVFDSWELLKQWISCKRC | 0.226 ± 1.6
DPYMNWIVLYSGVRHWNGVM | 0.056 ± 1.4
DQYIGGFGFNYETFVTRNLV | -0.861 ± 0.49
DRCNDAVGRKRRRTKMRGLY | 0.457 ± 0.45
DRLWKSTWKGMTRLMRRSAE | -0.968 ± 0.48
DRMPRFLVHENVYTVPERVW | inactive
DRRMSTTVMGRFVWRDRYVG | 0.526 ± 0.65
DRTRLVSHHTRIVRRWAHVY | 0.064 ± 0.65
